# Biological target: human IgM-Fc (heavy chain constant domains Cμ2, Cμ3, Cμ4 and the tailpiece) (human)
# Experiment: cryo-EM structure
substance,measurement,value
"human IgM-Fc (heavy chain constant domains Cμ2, Cμ3, Cμ4 and the tailpiece) (domain or fragment)",stoichiometry N,5

# Source: paper doi:10.1101/2020.09.10.291138
